This data set relates to MS2 coat protein. Description: apparent KD of MS2 coat protein; designed switch direction (-1 OFF switch, 1 ON switch): 1; higher = weaker reporter binding. An outline of the steps: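 An oligonucleotide input, 200 uM small-molecule ligand, or no input was present during titration of SNAP-549-labelled MS2 coat protein, which was doubled from 0.7 or 1.5 nM to 3 µM. Designed RNA switches had been transcribed on Illumina chips by stalled E. coli RNA polymerase. Apparent KD per design is the median over clusters of curves fitted to normalised cluster fluorescence.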

Where [1] appears, read: input ligand: microRNA oligo, concentration not stated.
The mark [2] stands for this setting: Eterna round: R95, input ligand: FMN 200 uM.
[3] abbreviates: Eterna round: R95, input ligand: microRNA oligo, concentration not stated.
The mark [4] stands for this setting: Eterna round: R95, input ligand: none.

Consider “GACAAUCUAUCUGAGGAUAUCAUGAAAAAAACAUGAGGAUCACCCAUGUGCAGGAAAACUGCAUAUGAGAAGGCAGAUAGAUUGA [salish99_SS2_r3_009] (Eterna round: R96, puzzle: Same State 2)”, for which, under setting [1], the “apparent KD of MS2 coat protein” value amounted to 453 nM.
For “GACAAUCUAUCUGAGGAUAUCAUGAAAAAAACAUGAGGAUCACCCAUGUGCAGGAAAACUGCAUAUGAGAAGGCAGAUAGAUUGA [salish99_SS2_r3_009] (puzzle: Same State 2)”, the “apparent KD of MS2 coat protein” value is 19.7 nM under setting [2], 155 nM under setting [3] and 1190 nM under setting [4].
Taken in the same sequence, the figures for “GACAAUCUAUCUGAGGAUAUCAUGAAGAAAACAUGAGGAUCACCCAUGUGCAGGAGAACUGCAAAUGAGAAGGCAGAUAGAUUGG [Mat - Same State 2 - Mod - D2] (puzzle: Same State 2)” were 8.71 nM, 13.1 nM and 20.4 nM.
Taken in the same sequence, the figures for “GACAGGCAAGCUUUUUUCUCGUAGUGUAAACAUGAGGAUCACCCAUGUGCUCGCCCUAGAUCUUUGGAUCGCAGAAA [Ceedes] (puzzle: Sensor for hsa-mir-208a)” were 39.5 nM, 22.6 nM and 50.1 nM.
In the case of “GACAGGCAAGCUUUUUUCUCGUAGUGUAGACAUGAGGAUCACCCAUGUGCUCGCCCUGGAUCUUUGGAUCGCAGAAA [Laaxeso] (puzzle: Sensor for hsa-mir-208a)”, the “apparent KD of MS2 coat protein” value under setting [2] is 17.7 nM, the “apparent KD of MS2 coat protein” value under setting [3] was 14.4 nM and the “apparent KD of MS2 coat protein” value under setting [4] was found to be 16.7 nM.
For “GAGAGAGGAUGAGGAUAUGCAGUAAUAAUGAUAGCAGAAGGCAUAGACAUGAGGAUCACCCAUGUGGGAAUAAUCCAGAGAGAG [Parity 1 - Jieux - Same State NG 1] (Eterna round: R96, puzzle: Same State NG 1)”, the “apparent KD of MS2 coat protein” value under setting [1] is 132 nM.
In the case of “GAGAGAGGGUGAGGAUAUAGAGUAAUAAUGAUACUAGAAGGCACAGACAUGAGGAUCACCCAUGUGGGAAUAAUCCAGAGAGAG [Parity 5 - Jieux - Same State NG 1] (Eterna round: R96, puzzle: Same State NG 1)”, the “apparent KD of MS2 coat protein” value runs as follows: (input ligand: FMN 200 uM) 300 nM; under setting [1], 259 nM; (input ligand: none) 401 nM.
On to “GAGAGAUGAUUAGGAUAUCCGGUGAUAAUGAUAGGAGAAGGAAUUGACAUGAGGAUCACCCAUGUGGGAAUAAUCCAGAGAGAG [Parity 23 - Jieux - Same State NG 1] (Eterna round: R96, puzzle: Same State NG 1)”, for which the “apparent KD of MS2 coat protein” value turned out to be 128 nM (input ligand: FMN 200 uM), 54.4 nM under setting [1] and 107 nM (input ligand: none).
Taken in the same sequence, the figures for “GAGAGAUGAUUAGGAUAUUCGGUGAUAAUGAUAGAAGAAGGAAUUGACAUGAGGAUCACCCAUGUGGGAAUAAUCCAGAGAGAG [Parity 21 - Jieux - Same State NG 1] (Eterna round: R96, puzzle: Same State NG 1)” were 148 nM, 77.5 nM and 161 nM.
Taken in the same sequence, the figures for “GAGCCAGUCCGAGGAUAUUCAUAUUAACACAUGAGGAUCACCCAUGUAGGCUCAGAAGAGCCUUGGGAGAAGGCGGACUGGCUC [SS-NG2-LRO14] (Eterna round: R96, puzzle: Same State NG 2)” were 35.2 nM, 227 nM and 311 nM.
Taken in the same sequence, the figures for “GAGCCAGUCCGAGGAUAUUCAUAUUAACACAUGAGGAUCACCCAUGUGGGCUCAGAAGAGCCCUGGGAGAAGGCGGACUGGCUC [SS-NG2-LRO16] (Eterna round: R96, puzzle: Same State NG 2)” were 16.5 nM, 232 nM and 297 nM.

The values are drawn from the supplement of paper PMC9170038.
